Measurements as given in article PMC11673900 (Journal of Translational Medicine, 2024).

Target: GST-tagged PARP1, full-length (human, UniProt P09874 1-1014)
Assay: co-IP

Chain of GST-tagged PARP1, full-length (P09874 whole entry): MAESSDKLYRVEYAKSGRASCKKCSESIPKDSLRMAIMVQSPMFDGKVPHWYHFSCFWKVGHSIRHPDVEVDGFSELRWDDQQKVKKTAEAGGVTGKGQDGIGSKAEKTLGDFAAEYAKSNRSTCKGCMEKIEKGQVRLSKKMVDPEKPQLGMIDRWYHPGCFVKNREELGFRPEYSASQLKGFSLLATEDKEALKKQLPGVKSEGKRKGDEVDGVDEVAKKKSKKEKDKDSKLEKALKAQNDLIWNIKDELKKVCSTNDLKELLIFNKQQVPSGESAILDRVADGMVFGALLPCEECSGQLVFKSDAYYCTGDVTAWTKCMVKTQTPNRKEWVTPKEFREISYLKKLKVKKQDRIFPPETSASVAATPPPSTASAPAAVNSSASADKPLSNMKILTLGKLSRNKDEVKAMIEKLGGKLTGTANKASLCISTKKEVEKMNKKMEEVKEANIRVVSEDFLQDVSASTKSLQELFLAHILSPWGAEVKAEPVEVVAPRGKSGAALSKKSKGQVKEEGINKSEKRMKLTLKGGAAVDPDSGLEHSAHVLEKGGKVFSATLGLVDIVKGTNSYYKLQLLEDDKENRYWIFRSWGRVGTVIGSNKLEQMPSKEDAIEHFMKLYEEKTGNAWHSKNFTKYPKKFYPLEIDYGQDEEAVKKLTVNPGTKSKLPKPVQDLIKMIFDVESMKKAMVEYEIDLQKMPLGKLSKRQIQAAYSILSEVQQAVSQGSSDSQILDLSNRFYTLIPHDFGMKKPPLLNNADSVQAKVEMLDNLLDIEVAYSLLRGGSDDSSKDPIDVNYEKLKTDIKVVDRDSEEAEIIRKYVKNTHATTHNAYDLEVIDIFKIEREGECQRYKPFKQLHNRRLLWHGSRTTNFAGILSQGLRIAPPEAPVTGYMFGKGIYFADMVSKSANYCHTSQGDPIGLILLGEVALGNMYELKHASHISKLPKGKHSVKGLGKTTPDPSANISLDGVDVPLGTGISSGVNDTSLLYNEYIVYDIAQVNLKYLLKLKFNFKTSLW

B1: MBP-tagged NONO (natural protein, human, UniProt Q15233 1-471, looked up)
chain: MQSNKTFNLEKQNHTPRKHHQHHHQQQHHQQQQQQPPPPPIPANGQQASSQNEGLTIDLKNFRKPGEKTFTQRSRLFVGNLPPDITEEEMRKLFEKYGKAGEVFIHKDKGFGFIRLETRTLAEIAKVELDNMPLRGKQLRVRFACHSASLTVRNLPQYVSNELLEEAFSVFGQVERAVVIVDDRGRPSGKGIVEFSGKPAARKALDRCSEGSFLLTTFPRPVTVEPMDQLDDEEGLPEKLVIKNQQFHKEREQPPRFAQPGSFEYEYAMRWKALIEMEKQQQDQVDRNIKEAREKLEMEMEAARHEHQVMLMRQDLMRRQEELRRMEELHNQEVQKRKQLELRQEEERRRREEEMRRQQEEMMRRQQEGFKGTFPDAREQEIRMGQMAMGGAMGINNRGAMPPAPVPAGTPAPPGPATMMPDGTLGLTPPTTERFGQAATMEGIGAIGGTPPAFNRAAPGAEFAPNKRRRY
- binding result: binds
